Measured values as given in US20250340658A1 (TWIST BIOSCIENCE, published 2025).
Positions count from the first letter of the chain named.

B1: GLP1R-221-065 (antibody, V domains shown)
VH: QVQLVESGGGVVQPGRSLRLSCAASGFTFNNYAMHWVRQAPGKGLEWVAVISYDRSNEYYADSVKGRFTISRDNSKNTLYLQMNSLRAEDTAVYYCAKHMSMQEGAVTGDGQAAKEFIAWLVKGRVRADLVGDAFDVWGQGTLVTVSS
VL: QSVLTQPPSVSAAPGQKVTISCSGTTSNIANNFVSWYQQLPGTAPKLLIYDHNKRPSGIPDRFSGSKSGTSATLGITGLQTGDEADYYCGTWDTSLSAGAFGGGTKLTVL
notes: IgG
B2: GLP1R-221-084 (antibody, V domains shown)
VH: B1 VH with T28A, N30S, A33G, Y53S, R55E, S56N, E58K, D110E, G111M
VL: B1 VL with T25S, T26S, N31D, F33Y, D51E, H52N, K54R, T94V, A98V, A100M
notes: IgG
B3: GLP1R-221-066 (antibody, V domains shown)
VH: B1 VH with D110E, A114I
VL: QSVLTQPPSVSAAPGQKVTISCSGSSSNIGNNYLSWYQQLPGTAPKLLIYENNKRPSGIPDRFSGSKSGTSATLGITGLQTGDEADYYCGIWDRSLSAWVFGGGTKLTVL
notes: IgG
B4: GLP1R-221-075 (antibody, V domains shown)
VH: B1 VH with N30S, A33P, R55E, S56T, E58K, D110E, R125I
VL: B3 VL with S26G, Y33D, L34V, E51D, N53D, S57A, I91T, R94T, A98N, W99Y
notes: IgG
B5: GLP1R-221-033 (antibody, V domains shown)
VH: B1 VH with T28S, N30S, Y53H, E58K, D110E, E116D
VL: B3 VL with N32E, L34V, E51D, P56V, G90A, I91T, R94T, S97N, A98V, W99G
notes: IgG
B6: GLP1R-221-017 (antibody, V domains shown)
VH: B1 VH with N30S, N31D, A33G, M34V, V50F, R55E, E58K, D110E, G111Y
VL: QSVLTQPPSVSAAPGQKVTISCSGSSSNIGNTYVSWYQQLPGTAPKLLIYDDYKRPSGIPDRFSGSKSGTSATLGITGLQTGDEADYYCATWDATLNTGVFGGGTKLTVL
notes: IgG
B7: GLP1R-221-009 (antibody, V domains shown)
VH: B1 VH with T28I, N30S, A33G, Y53D, D54E, R55G, E58K, D110A
VL: B6 VL with T32Q, Y53H, A90G, A94T, T95S, N97S, T98V, V100E
notes: IgG
B8: GLP1R-221-034 (antibody, V domains shown)
VH: B1 VH with T28P, N30S, A33G, Y53H, E58K, D110E, A114V
VL: B3 VL with Y33P, L34V, N53D, K54N, G90A, I91T, S95G, A98T, W99G
notes: IgG
B9: GLP1R-221-076 (antibody, V domains shown)
VH: B1 VH with A33P, R55E, S56T, E58K, D110E, R125I
VL: B3 VL with S25T, Y33D, L34V, P56H, G90L, I91T, R94H, S97T, W99Y
notes: IgG
B10: GLP1R-221-092 (antibody, V domains shown)
VH: B1 VH with T28I, A33G, V50F, D54G, R55G, E58K, D110E, A114V
VL: B1 VL with H52N, S57P, A98V, A100M
notes: IgG
B11: GLP1R-222-056 (antibody, V domains shown)
VH: B1 VH with T28P, N30S, N31S, E58K, D110Y, R125F
VL: B3 VL with N31S, L34I, E51D, N53D, S57A, I91T, R94T, A98V, W99G, V100E
notes: IgG
B12: GLP1R-222-052 (antibody, V domains shown)
VH: B1 VH with A33P, R55E, E58K, D110G
VL: B3 VL with N31K, N32R, Y33S, L34V, E51D, P56A, G90V, I91T, W99G
notes: IgG
B13: GLP1R-222-023 (antibody, V domains shown)
VH: B1 VH with T28S, N30S, N31D, A33G, V50F, R55A, S56N, E58K, D110E, G111W
VL: B3 VL with Y33D, L34V, N53T, I91T, R94A, S95G, A98T, W99G
notes: IgG
B14: GLP1R-222-014 (antibody, V domains shown)
VH: B1 VH with T28A, N30S, A33G, A49S, V50F, R55E, E58K, S85N, D110E, G111W
VL: B3 VL with N32H, Y33D, L34V, E51D, P56H, I91T, R94T, W99G
notes: IgG
B15: GLP1R-222-081 (antibody, V domains shown)
VH: B1 VH with N30D, M34L, V50L, R55A, S56G, E58K, D110E, R125F
VL: B3 VL with N31S, N32D, L34V, E51D, P56S, I91T, R94E, S97R, A98S
notes: IgG
B16: GLP1R-222-082 (antibody, V domains shown)
VH: B1 VH with N30S, N31A, A33S, V50L, R55A, S56T, E58K, D110E, G111F
VL: B3 VL with N31S, N32K, L34V, E51D, I91T, R94I, L96P
notes: IgG
B17: GLP1R-222-073 (antibody, V domains shown)
VH: B1 VH with N30R, N31D, A33G, V50F, S52R, R55E, S56I, E58K, D110E, K123G
VL: B6 VL with S26G, T32N, Y33D, D52N, Y53N, P56A, A90G, A94R, T95G, L96P
notes: IgG
B18: GLP1R-222-012 (antibody, V domains shown)
VH: B1 VH with A33G, Y53D, D54E, R55G, E58K, D110V
VL: B1 VL with T25S, T26S, A30G, F33D, H52D, N53D, A98V, A100E
notes: IgG

Target: T1, full length human GLP-1R with N-terminal FLAG tag and C-terminal GFP tag, on CHO cells (human, UniProt P43220 24-463)
T1 construct: whole, on cells; the cell line itself is tied to UniProt P43220; also called FLAG-GLP-1R-GFP; CHO-GLP-1R
Assay: flow cytometry, GLP1R-expressing CHO cells
Description: (§1) GLP-1R IgG clones were tested in a binding assay coupled to flow cytometry analysis as follows: FLAG-GLP-1R-GFP expressing CHO cells (CHO-GLP-1R) and CHO-parent cells were incubated with 100 nM IgG for 1 h on ice, washed three times and incubated with Alexa 647 conjugated goat-anti-human antibody (1:200) (Jackson ImmunoResearch Laboratories, 109-605-044) for 30 min on ice, followed by three washes, centrifuging to pellet the cells between each washing step. All incubations and washes were in buffer containing PBS+1% BSA. […] Cells were analyzed by flow cytometry and hits (a hit is an IgG that specifically binds to CHO-GLP-1R) were identified by measuring the GFP signal against the Alexa 647 signal. Flow cytometry data of binding assays with 100 nM IgG are presented as dot plots. Analyses of binding assays with IgG titrations are presented as binding curves plotting IgG concentrations against MFI (mean fluorescence intensity).

Median RL1-H of Expressing Singlets | Binder
273000 | B1
221000 | B2
223000 | B3
242000 | B4
240000 | B5
241000 | B6
221000 | B7
223000 | B8
236000 | B9
232000 | B10

Target: T1, full length human GLP-1R with …
Assay: flow cytometry, expressing vs parent CHO cells
Description: as §1

MFI Ratio | Binder
946 | B11
13.7 | B12
778 | B13
794 | B14
850 | B15
711 | B16
984 | B17
775 | B18

Target: T1, full length human GLP-1R with …
Assay: flow cytometry, expressing vs parent CHO cells
Remark: another data set of the same source
Description: as §1

MFI Ratio | Binder
946 | B11
13.7 | B12
778 | B13
794 | B14
850 | B15
711 | B16
984 | B17
775 | B18

Target: T1, full length human GLP-1R with …
Assay: flow cytometry, expressing minus parent CHO cells
Description: as §1

Subtraction | Binder
272000 | B1
221000 | B2
222000 | B3
242000 | B4
240000 | B5
240000 | B6
220000 | B7
223000 | B8
236000 | B9
232000 | B10

Target: T1, full length human GLP-1R with …
Assay: flow cytometry, expressing minus parent CHO cells
Remark: another data set of the same source
Description: as §1

Subtraction | Binder
217000 | B11
350000 | B12
241000 | B13
237000 | B14
221000 | B15
224000 | B16
225000 | B17
225000 | B18

Target: T1, full length human GLP-1R with …
Assay: flow cytometry, expressing vs parent CHO cells
Remark: another data set of the same source
Description: as §1

MFI Ratio | Binder
914 | B1
1070 | B2
928 | B3
1170 | B4
1020 | B5
1480 | B6
1120 | B7
711 | B8
747 | B9
712 | B10

Target: T1, full length human GLP-1R with …
Assay: flow cytometry titration, CHO GLP1R cells
Description: as §1

Bmax | EC50 [nM] | Binder
293000 | 77.4 | B11
228000 | 17.4 | B12
220000 | 18.4 | B13
213000 | 34.3 | B14
194000 | 22.5 | B15
135000 | 11.5 | B16
151000 | 13.1 | B17
234000 | 23.1 | B18

Target: T1, full length human GLP-1R with …
Assay: flow cytometry, expressing vs parent CHO cells
Remark: another data set of the same source
Description: as §1

MFI Ratio | Binder
915 | B1
1070 | B2
928 | B3
1170 | B4
1020 | B5
1480 | B6
1120 | B7
711 | B8
747 | B9
712 | B10

Target: T1, full length human GLP-1R with …
Assay: flow cytometry, GLP1R-expressing CHO cells
Remark: another data set of the same source
Description: as §1

Median RL1-H of Expressing Singlets | Binder
218000 | B11
378000 | B12
241000 | B13
237000 | B14
221000 | B15
224000 | B16
225000 | B17
225000 | B18

Target: T1, full length human GLP-1R with …
Assay: flow cytometry titration, CHO GLP1R cells
Remark: another data set of the same source
Description: as §1

Bmax | EC50 [nM] | Binder
798000 |  | B1
287000 | 4.09 | B2
172000 | 57.4 | B3
213000 |  | B4
167000 | 9.04 | B5
250000 | 27.6 | B6
215000 | 12.5 | B7
933000 |  | B8
799000 |  | B9
145000 | 13.3 | B10
